The labels stand for the following.
T1: human IL-18BP (human, UniProt O95998 31-194)
T1 construct: UniProt printed as 095998; also called hIL-18BP
T1 sequence: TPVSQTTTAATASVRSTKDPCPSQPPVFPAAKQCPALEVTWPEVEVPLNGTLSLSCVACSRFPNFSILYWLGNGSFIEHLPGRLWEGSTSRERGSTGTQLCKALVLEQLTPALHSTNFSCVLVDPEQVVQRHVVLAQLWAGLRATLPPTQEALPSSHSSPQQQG

B1: SA301a HC-G97M (antibody, name in Kabat numbering, V domains shown)
VH: QVQLQESGPGLVKPSQTLSLTCTVSGYSITSDYNSHWIRQPPGKGLEWIGYIHYSGSTNYNPSLKSRVTISRDTSKNQFSLKLSSVTAADTAVYYCARNYMSIYVNYFDYWGQGTLVTVSS
VL: EIVLTQSPATLSLSPGERATLSCSASSSVSYMYWYQQKPGQAPRPLIYRTSNLASGIPARFSGSGSGTDFTLTISSLEPEDFAVYYCQQYHSYPTFGGGTKVEIK
notes: IgG1 kappa
B2: SA301a HC-S98G (antibody, name in Kabat numbering, V domains shown)
VH: QVQLQESGPGLVKPSQTLSLTCTVSGYSITSDYNSHWIRQPPGKGLEWIGYIHYSGSTNYNPSLKSRVTISRDTSKNQFSLKLSSVTAADTAVYYCARNYGGIYVNYFDYWGQGTLVTVSS
VL: EIVLTQSPATLSLSPGERATLSCSASSSVSYMYWYQQKPGQAPRPLIYRTSNLASGIPARFSGSGSGTDFTLTISSLEPEDFAVYYCQQYHSYPTFGGGTKVEIK
notes: IgG1 kappa
B3: SA301a HC-G97T (antibody, name in Kabat numbering, V domains shown)
VH: QVQLQESGPGLVKPSQTLSLTCTVSGYSITSDYNSHWIRQPPGKGLEWIGYIHYSGSTNYNPSLKSRVTISRDTSKNQFSLKLSSVTAADTAVYYCARNYTSIYVNYFDYWGQGTLVTVSS
VL: EIVLTQSPATLSLSPGERATLSCSASSSVSYMYWYQQKPGQAPRPLIYRTSNLASGIPARFSGSGSGTDFTLTISSLEPEDFAVYYCQQYHSYPTFGGGTKVEIK
notes: IgG1 kappa
B4: SA301a HC-G97V (antibody, name in Kabat numbering, V domains shown)
VH: QVQLQESGPGLVKPSQTLSLTCTVSGYSITSDYNSHWIRQPPGKGLEWIGYIHYSGSTNYNPSLKSRVTISRDTSKNQFSLKLSSVTAADTAVYYCARNYVSIYVNYFDYWGQGTLVTVSS
VL: EIVLTQSPATLSLSPGERATLSCSASSSVSYMYWYQQKPGQAPRPLIYRTSNLASGIPARFSGSGSGTDFTLTISSLEPEDFAVYYCQQYHSYPTFGGGTKVEIK
notes: IgG1 kappa
B5: SA301a HC-S98A (antibody, name in Kabat numbering, V domains shown)
VH: QVQLQESGPGLVKPSQTLSLTCTVSGYSITSDYNSHWIRQPPGKGLEWIGYIHYSGSTNYNPSLKSRVTISRDTSKNQFSLKLSSVTAADTAVYYCARNYGAIYVNYFDYWGQGTLVTVSS
VL: EIVLTQSPATLSLSPGERATLSCSASSSVSYMYWYQQKPGQAPRPLIYRTSNLASGIPARFSGSGSGTDFTLTISSLEPEDFAVYYCQQYHSYPTFGGGTKVEIK
notes: IgG1 kappa
B6: SA301a HC-S98T (antibody, name in Kabat numbering, V domains shown)
VH: QVQLQESGPGLVKPSQTLSLTCTVSGYSITSDYNSHWIRQPPGKGLEWIGYIHYSGSTNYNPSLKSRVTISRDTSKNQFSLKLSSVTAADTAVYYCARNYGTIYVNYFDYWGQGTLVTVSS
VL: EIVLTQSPATLSLSPGERATLSCSASSSVSYMYWYQQKPGQAPRPLIYRTSNLASGIPARFSGSGSGTDFTLTISSLEPEDFAVYYCQQYHSYPTFGGGTKVEIK
notes: IgG1 kappa
B7: SA301a HC-G97Q (antibody, name in Kabat numbering, V domains shown)
VH: QVQLQESGPGLVKPSQTLSLTCTVSGYSITSDYNSHWIRQPPGKGLEWIGYIHYSGSTNYNPSLKSRVTISRDTSKNQFSLKLSSVTAADTAVYYCARNYQSIYVNYFDYWGQGTLVTVSS
VL: EIVLTQSPATLSLSPGERATLSCSASSSVSYMYWYQQKPGQAPRPLIYRTSNLASGIPARFSGSGSGTDFTLTISSLEPEDFAVYYCQQYHSYPTFGGGTKVEIK
notes: IgG1 kappa
B8: SA301a HC-N95R (antibody, name in Kabat numbering, V domains shown)
VH: QVQLQESGPGLVKPSQTLSLTCTVSGYSITSDYNSHWIRQPPGKGLEWIGYIHYSGSTNYNPSLKSRVTISRDTSKNQFSLKLSSVTAADTAVYYCARRYGSIYVNYFDYWGQGTLVTVSS
VL: EIVLTQSPATLSLSPGERATLSCSASSSVSYMYWYQQKPGQAPRPLIYRTSNLASGIPARFSGSGSGTDFTLTISSLEPEDFAVYYCQQYHSYPTFGGGTKVEIK
notes: IgG1 kappa
B9: SA301a HC-S98Q (antibody, name in Kabat numbering, V domains shown)
VH: QVQLQESGPGLVKPSQTLSLTCTVSGYSITSDYNSHWIRQPPGKGLEWIGYIHYSGSTNYNPSLKSRVTISRDTSKNQFSLKLSSVTAADTAVYYCARNYGQIYVNYFDYWGQGTLVTVSS
VL: EIVLTQSPATLSLSPGERATLSCSASSSVSYMYWYQQKPGQAPRPLIYRTSNLASGIPARFSGSGSGTDFTLTISSLEPEDFAVYYCQQYHSYPTFGGGTKVEIK
notes: IgG1 kappa
B10: SA301a HC-S98D (antibody, name in Kabat numbering, V domains shown)
VH: QVQLQESGPGLVKPSQTLSLTCTVSGYSITSDYNSHWIRQPPGKGLEWIGYIHYSGSTNYNPSLKSRVTISRDTSKNQFSLKLSSVTAADTAVYYCARNYGDIYVNYFDYWGQGTLVTVSS
VL: EIVLTQSPATLSLSPGERATLSCSASSSVSYMYWYQQKPGQAPRPLIYRTSNLASGIPARFSGSGSGTDFTLTISSLEPEDFAVYYCQQYHSYPTFGGGTKVEIK
notes: IgG1 kappa
B11: SA301a HC-G97R (antibody, name in Kabat numbering, V domains shown)
VH: QVQLQESGPGLVKPSQTLSLTCTVSGYSITSDYNSHWIRQPPGKGLEWIGYIHYSGSTNYNPSLKSRVTISRDTSKNQFSLKLSSVTAADTAVYYCARNYRSIYVNYFDYWGQGTLVTVSS
VL: EIVLTQSPATLSLSPGERATLSCSASSSVSYMYWYQQKPGQAPRPLIYRTSNLASGIPARFSGSGSGTDFTLTISSLEPEDFAVYYCQQYHSYPTFGGGTKVEIK
notes: IgG1 kappa
B12: SA301a HC-S98N (antibody, name in Kabat numbering, V domains shown)
VH: QVQLQESGPGLVKPSQTLSLTCTVSGYSITSDYNSHWIRQPPGKGLEWIGYIHYSGSTNYNPSLKSRVTISRDTSKNQFSLKLSSVTAADTAVYYCARNYGNIYVNYFDYWGQGTLVTVSS
VL: EIVLTQSPATLSLSPGERATLSCSASSSVSYMYWYQQKPGQAPRPLIYRTSNLASGIPARFSGSGSGTDFTLTISSLEPEDFAVYYCQQYHSYPTFGGGTKVEIK
notes: IgG1 kappa
B13: SA301a HC-G97N (antibody, name in Kabat numbering, V domains shown)
VH: QVQLQESGPGLVKPSQTLSLTCTVSGYSITSDYNSHWIRQPPGKGLEWIGYIHYSGSTNYNPSLKSRVTISRDTSKNQFSLKLSSVTAADTAVYYCARNYNSIYVNYFDYWGQGTLVTVSS
VL: EIVLTQSPATLSLSPGERATLSCSASSSVSYMYWYQQKPGQAPRPLIYRTSNLASGIPARFSGSGSGTDFTLTISSLEPEDFAVYYCQQYHSYPTFGGGTKVEIK
notes: IgG1 kappa
B14: SA301a HC-S98P (antibody, name in Kabat numbering, V domains shown)
VH: QVQLQESGPGLVKPSQTLSLTCTVSGYSITSDYNSHWIRQPPGKGLEWIGYIHYSGSTNYNPSLKSRVTISRDTSKNQFSLKLSSVTAADTAVYYCARNYGPIYVNYFDYWGQGTLVTVSS
VL: EIVLTQSPATLSLSPGERATLSCSASSSVSYMYWYQQKPGQAPRPLIYRTSNLASGIPARFSGSGSGTDFTLTISSLEPEDFAVYYCQQYHSYPTFGGGTKVEIK
notes: IgG1 kappa
B15: SA301a HC-N95G (antibody, name in Kabat numbering, V domains shown)
VH: QVQLQESGPGLVKPSQTLSLTCTVSGYSITSDYNSHWIRQPPGKGLEWIGYIHYSGSTNYNPSLKSRVTISRDTSKNQFSLKLSSVTAADTAVYYCARGYGSIYVNYFDYWGQGTLVTVSS
VL: EIVLTQSPATLSLSPGERATLSCSASSSVSYMYWYQQKPGQAPRPLIYRTSNLASGIPARFSGSGSGTDFTLTISSLEPEDFAVYYCQQYHSYPTFGGGTKVEIK
notes: IgG1 kappa
B16: SA301a HC-S98I (antibody, name in Kabat numbering, V domains shown)
VH: QVQLQESGPGLVKPSQTLSLTCTVSGYSITSDYNSHWIRQPPGKGLEWIGYIHYSGSTNYNPSLKSRVTISRDTSKNQFSLKLSSVTAADTAVYYCARNYGIIYVNYFDYWGQGTLVTVSS
VL: EIVLTQSPATLSLSPGERATLSCSASSSVSYMYWYQQKPGQAPRPLIYRTSNLASGIPARFSGSGSGTDFTLTISSLEPEDFAVYYCQQYHSYPTFGGGTKVEIK
notes: IgG1 kappa
B17: SA301a HC-N95Q (antibody, name in Kabat numbering, V domains shown)
VH: QVQLQESGPGLVKPSQTLSLTCTVSGYSITSDYNSHWIRQPPGKGLEWIGYIHYSGSTNYNPSLKSRVTISRDTSKNQFSLKLSSVTAADTAVYYCARQYGSIYVNYFDYWGQGTLVTVSS
VL: EIVLTQSPATLSLSPGERATLSCSASSSVSYMYWYQQKPGQAPRPLIYRTSNLASGIPARFSGSGSGTDFTLTISSLEPEDFAVYYCQQYHSYPTFGGGTKVEIK
notes: IgG1 kappa
B18: SA301a HC-S98H (antibody, name in Kabat numbering, V domains shown)
VH: QVQLQESGPGLVKPSQTLSLTCTVSGYSITSDYNSHWIRQPPGKGLEWIGYIHYSGSTNYNPSLKSRVTISRDTSKNQFSLKLSSVTAADTAVYYCARNYGHIYVNYFDYWGQGTLVTVSS
VL: EIVLTQSPATLSLSPGERATLSCSASSSVSYMYWYQQKPGQAPRPLIYRTSNLASGIPARFSGSGSGTDFTLTISSLEPEDFAVYYCQQYHSYPTFGGGTKVEIK
notes: IgG1 kappa
B19: SA301a HC-G97P (antibody, name in Kabat numbering, V domains shown)
VH: QVQLQESGPGLVKPSQTLSLTCTVSGYSITSDYNSHWIRQPPGKGLEWIGYIHYSGSTNYNPSLKSRVTISRDTSKNQFSLKLSSVTAADTAVYYCARNYPSIYVNYFDYWGQGTLVTVSS
VL: EIVLTQSPATLSLSPGERATLSCSASSSVSYMYWYQQKPGQAPRPLIYRTSNLASGIPARFSGSGSGTDFTLTISSLEPEDFAVYYCQQYHSYPTFGGGTKVEIK
notes: IgG1 kappa
B20: SA301a HC-N95A (antibody, name in Kabat numbering, V domains shown)
VH: QVQLQESGPGLVKPSQTLSLTCTVSGYSITSDYNSHWIRQPPGKGLEWIGYIHYSGSTNYNPSLKSRVTISRDTSKNQFSLKLSSVTAADTAVYYCARAYGSIYVNYFDYWGQGTLVTVSS
VL: EIVLTQSPATLSLSPGERATLSCSASSSVSYMYWYQQKPGQAPRPLIYRTSNLASGIPARFSGSGSGTDFTLTISSLEPEDFAVYYCQQYHSYPTFGGGTKVEIK
notes: IgG1 kappa
B21: SA301a HC-S98K (antibody, name in Kabat numbering, V domains shown)
VH: QVQLQESGPGLVKPSQTLSLTCTVSGYSITSDYNSHWIRQPPGKGLEWIGYIHYSGSTNYNPSLKSRVTISRDTSKNQFSLKLSSVTAADTAVYYCARNYGKIYVNYFDYWGQGTLVTVSS
VL: EIVLTQSPATLSLSPGERATLSCSASSSVSYMYWYQQKPGQAPRPLIYRTSNLASGIPARFSGSGSGTDFTLTISSLEPEDFAVYYCQQYHSYPTFGGGTKVEIK
notes: IgG1 kappa

The assay addresses T1, human IL-18BP. Briefly: BLI, apparent KD. Background: In BLI a coated tip is dipped into the sample, and binding shifts an interference pattern.
For B1, the Kd turned out to be 0.19 nM.
Take B2: the Kd was determined as 2.57 nM.
As for B3, the figure is 0.01 nM; as for B4, 4.96 nM.
As for B5, the figure is 2.29 nM.
For the molecule B6, the Kd worked out at 26.9 nM.
On to B7, for which the Kd came out at 7.04 nM.
As for B8, the figure is 0.02 nM; as for B9, 12.3 nM.
The value for B10 was 0.99 nM; that for B11 was 25.1 nM; that for B12 was 2.98 nM.
With B13, the Kd is 5.93 nM.
As for B14, the figure is 0.55 nM; as for B15, 0.17 nM; as for B16, 2.1 nM.
The value for B17 was 5.33 nM.
The value for B18 was 6.42 nM.
In the case of B19, the Kd stood at 1.36 nM.
The value for B20 was 46.1 nM; that for B21 was 5.41 nM.

Source of the values: patent US20250368745A1 (published 2025).
